Details: Equus caballus, CD; for denaturant m value / denaturant midpoint (higher = more stable) / unfolding free energy: 22 °C, GdnHCl; for Tm / change of melting temperature, mutant - wild type (higher = more stable) / unfolding enthalpy (calorimetric): Thermal, transition: 2, reversible: yes (>83%)
[1] = pH 4.5, sodium acetate buffer 10 mM, NaCl 100 mM, structure 1HRC
[2] = pH 7.4, sodium phosphate buffer 100 mM, structure 1HRC
[3] = pH 4.5, sodium acetate buffer 10 mM, NaCl 100 mM
[4] = pH 7.4, sodium phosphate buffer 100 mM

Cytochrome c wild type, P00004, sequence (P00004 whole entry): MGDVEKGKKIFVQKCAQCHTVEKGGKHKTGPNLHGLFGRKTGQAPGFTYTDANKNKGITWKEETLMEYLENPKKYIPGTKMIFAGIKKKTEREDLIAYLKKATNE
Cytochrome c T50V, P00004, sequence (P00004 whole entry T50V): as the sequence (P00004 whole entry) above, with T50V counted along it
Cytochrome c M81A, P00004, sequence (P00004 whole entry M81A): as the sequence (P00004 whole entry) above, with M81A counted along it
Cytochrome c Y68R|M81A, P00004 Y68R M81A, sequence (P00004 whole entry Y68R/M81A): as the sequence (P00004 whole entry) above, with Y68R, M81A counted along it

Cytochrome c M81A, P00004
denaturant m value [1]: 2.77 kcal/mol/M
denaturant midpoint (higher = more stable) [1]: 2.6 M
unfolding free energy [1]: 2.77 kcal/mol
Tm [1]: 76 °C
change of melting temperature, mutant - wild type (higher = more stable) [1]: 5 °C
unfolding enthalpy (calorimetric) [1]: 83.4 kcal/mol
denaturant m value [2]: 2.46 kcal/mol/M
denaturant midpoint (higher = more stable) [2]: 2.71 M
unfolding free energy [2]: 6.67 kcal/mol
Tm [2]: 84 °C
change of melting temperature, mutant - wild type (higher = more stable) [2]: -0.1 °C
unfolding enthalpy (calorimetric) [2]: 85.3 kcal/mol

Cytochrome c T50V, P00004
denaturant m value [1]: 1.6 kcal/mol/M
denaturant midpoint (higher = more stable) [1]: 2.5 M
unfolding free energy [1]: 3.99 kcal/mol
Tm [1]: 72 °C
change of melting temperature, mutant - wild type (higher = more stable) [1]: 1 °C
unfolding enthalpy (calorimetric) [1]: 82.5 kcal/mol
denaturant m value [2]: 2.68 kcal/mol/M
denaturant midpoint (higher = more stable) [2]: 2.7 M
unfolding free energy [2]: 7.22 kcal/mol
Tm [2]: 86 °C
change of melting temperature, mutant - wild type (higher = more stable) [2]: 1.9 °C
unfolding enthalpy (calorimetric) [2]: 83.9 kcal/mol

Cytochrome c Y68R|M81A, P00004 Y68R M81A
denaturant m value [1]: 2.29 kcal/mol/M
denaturant midpoint (higher = more stable) [1]: 1.4 M
unfolding free energy [1]: 3.2 kcal/mol
Tm [1]: 55 °C
change of melting temperature, mutant - wild type (higher = more stable) [1]: -16 °C
unfolding enthalpy (calorimetric) [1]: 78.4 kcal/mol
denaturant m value [2]: 2.46 kcal/mol/M
denaturant midpoint (higher = more stable) [2]: 1.7 M
unfolding free energy [2]: 4.18 kcal/mol
Tm [2]: 71 °C
change of melting temperature, mutant - wild type (higher = more stable) [2]: -13.1 °C
unfolding enthalpy (calorimetric) [2]: 82.2 kcal/mol

Cytochrome c wild type, P00004
denaturant m value [3]: 2.34 kcal/mol/M
denaturant midpoint (higher = more stable) [3]: 2.6 M
unfolding free energy [3]: 6 kcal/mol
Tm [3]: 71 °C
unfolding enthalpy (calorimetric) [3]: 49 kcal/mol
denaturant m value [4]: 2.75 kcal/mol/M
denaturant midpoint (higher = more stable) [4]: 2.7 M
unfolding free energy [4]: 7.43 kcal/mol
Tm [4]: 84.1 °C
unfolding enthalpy (calorimetric) [4]: 86 kcal/mol

Reference: FireProtDB (doi:10.1021/acs.biochem.6b01187)
